Test results as given in patent US8536113B2, “EGFR binding peptides and uses thereof” (Janssen Biotech, Inc., priority 2006, dated 2013).
Bridges are numbered along the chain shown (N, C = ends). Where no end group is shown, it is not given here.

System: MCF-7
Experiment: Flow cytometry of phage binding to EGFR negative tumor cells
Type: cell-based, human
Conditions: EGFR positive versus EGFR negative cells
Method: (§1) Flow cytometry. To evaluate whether the selected peptides from phage display can bind to tumor cells that overexpress EGFR, A431 cells (epidermoid cancer) or an EGFR negative tumor cells, MCF-7 (breast carcinoma) were tested in a flow cytometry assay using fluorescence detection (FACS). For P145, PP146 and their control phage, 2.5×10^5 A431 cells were resuspended in 25 μl of flow staining buffer (dPBS with 1% BSA, 0.09% sodium azide) and incubated with 25 μl of phage clones for 1 hour at 4° C. […] Cells were washed two times with flow staining buffer and then incubated with 0.5 μg of mouse anti M13/fd/F1 filamentous phages monoclonal antibody conjugated to FITC (Fitzgerald Industries International, Inc. Concord, Mass.) for 45 minutes at 4° C. Cells were washed two times with flow staining buffer and acquired by FACSCalibur (BD, Franklin Lakes, N.J.) to detect bound phages on tumor cell surface. Results.
(§2) A431 cells (epidermoid cancer) which overexpress EGFR and EGFR-negative tumor cells, MCF-7 (breast carcinoma) were tested in a flow cytometry assay. Tumor cells (A431 and MCF-7) were harvested with 0.25% tyrpsin-EDTA and washed twice with FACS staining buffer (dPBS with 1% BSA, 0.09% sodium azide). […] After binding at 4° C., cells were washed twice with FACS staining buffer to remove unbound phage and then incubated with 0.5 μg of mouse anti-M13 monoclonal antibody conjugated to FITC (Fitzgerald Industries International, Inc. Concord, Mass.) for 1 hour at 4° C. Mouse anti-M13-FITC incubated with cells without phage was used as background binding. Cells were washed twice with FACS staining buffer to remove unbound detection antibody.

Substance	binding to A431 compared with MCF-7
SGCLDALWQCVY (S16 and S17 hits Phage 174) [P174]	greater to A431 than to MCF-7
VLCHRYYHPICYT [P145]	greater binding to A431 than MCF-7 cells

Molecular target: T1, sEGFR-MMB (Homo sapiens, UniProt P00533)
T1 construct: made in house; host or cells: Human Embryonic Kidney cells (293E)
Experiment: Phage ELISA screening of panning hits
Type: binding
Conditions: phage clone culture supernatant; background typically <200 units
Method: Phage Screening. Individual phage clones from selections were amplified and screened for EGFR binding by phage ELISA. To amplify pIII phage for screening, phage eluates from round 3 were diluted appropriately and plated with a lawn of XL-1 Blue to yield isolated single plaques. 24 plaques from each pool were picked and inoculated into a culture of XL-1 Blue host cells. The cultures were shaken at 37° C. for 4.5 hr and the cells were removed by centrifugation. To amplify pIX-displaying phagemid clones, phage eluates were infected into XL-1 Blue and plated onto LB-ampicillin plates. Individual colonies were cultured in 1 ml volumes and rescued with VCS-M13 helper phage. Bacterial cells were removed from phage cultures by centrifugation at (2250×g, 7 min) and the phage-containing supernatant was saved.
The protein solution was removed and wells were rinsed twice with Tris-Buffered Saline containing 0.05% Tween-20 (TBS-T) using a plate washer (Embla). The wells were blocked with Starting Block in TBS for 1 hr at room temperature and rinsed twice with TBS-T. An equal volume of phage supernatant and Starting Block in TBS were incubated in the wells for 1 hr at room temperature, and the wells were rinsed five times with TBS-T. Anti-M13/horseradish peroxidase conjugate (Amersham), diluted 1:5000 in Starting Block in TBS, was added into the wells and incubated for 1 hour at room temperature, and then the wells were rinsed five times with TBS-T. Finally, chemiluminescent peroxidase substrate (Roche) was added to the wells, and chemiluminescence was measured on a Tecan plate reader.
Sequences and ELISA signal (background typically <200 units) are given, along with a consensus sequence, if any. Cysteines that are fixed in the library design are underlined.

Substance	ELISA signal [units]
10 (YRLFVDESIFFCTRL; S15 library, which displays a random linear 15-mer) [compound 10]	3078
11 (ELGLPTLLCWPTDTL; S15 library, which displays a random linear 15-mer) [compound 11]	9380
12 (VSGILPILVCHPAAT; S15 library, which displays a random linear 15-mer) [compound 12]	1107
14 (HVSLQSLPELICVVS; S15 library, which displays a random linear 15-mer) [compound 14]	1362
15 (NWFSLPTLLCFPLNP; S15 library, which displays a random linear 15-mer) [compound 15]	3669
16 (STITSLPTLQCWPIL; S15 library, which displays a random linear 15-mer) [compound 16]	13332
17 (PIDDESLPVLYCVTS; Random peptide) [compound 17]	1785
18 (PIFSSLPVLYCTSQL; S15 library, which displays a random linear 15-mer) [compound 18]	1425
19 (GADTLPDLLCWESSL; S15 library, which displays a random linear 15-mer) [compound 19]	5722
20 (TVFTLPELVCVVAGT; S15 library, which displays a random linear 15-mer) [compound 20]	1515
21 (LPDLICAVDSGTSGA; S15 library, which displays a random linear 15-mer) [compound 21]	1161
23 (AGCIAFVDVVYCAR; Peptide family identified from the S18 library) [compound 23]	6377
24 (AKCIAFGNSVYCLN; Peptide family identified from the S18 library) [compound 24]	31524
25 (RDCIIFDKTVYCVI; Peptide family identified from the S18 library) [compound 25]	17060
26 (KHCILFEKTVYCAK; Peptide family identified from the S18 library) [compound 26]	9111
27 (DSCIQFANLLYCAI; Peptide family identified from the S18 library) [compound 27]	53162
28 (TDCIRFGVLWYCLV; Peptide family identified from the S18 library) [compound 28]	4746
29 (RACITFGKVVYCEV; Peptide family identified from the S18 library) [compound 29]	30741
30 (AYCSFVAGDLVCQV; Peptide family identified from the S18 library) [compound 30]	19792
31 (TDCVIFGLETYCLR; disulfide 3-12 (inferred)) [compound 31]	37925

Substance	ELISA signal [units]
32 (SDCVLFGSKLFCSA; families were identified from the S18 library) [compound 32]	35327
33 (TDCVRFGETIYCIV; Peptide family identified from the S18 library) [compound 33]	13291
34 (YDCVSFGAVAYCPQ; Peptide family identified from the S18 library) [compound 34]	3205
35 (RGCVVFGDNIYCIV; Peptide family identified from the S18 library) [compound 35]	21963
37 (MICYLVDSGNIICYK; Peptide family identified from the S19 library) [compound 37]	8806
38 (YDCMIRADGSLICWC; Peptide family identified from the S19 library) [compound 38]	1286
39 (GPCVLIRDYYLLCLE; disulfide 3-13 (inferred)) [compound 39]	13951
40 (AFCRLDFNQWLTCLV; Peptide family identified from the S19 library) [compound 40]	2581
41 (CDCREAVSASLVCRY; Peptide family identified from the S19 library) [compound 41]	3347
43 (PTCDSATRRVLTICAD; Peptide family identified from the S20 library) [compound 43]	5420
44 (WMCFLEGYGASLMCQC; Peptide family identified from the S20 library) [compound 44]	4795
45 (DSCCSFLTDGTVVCSL; Peptide family identified from the S20 library) [compound 45]	9544
46 (YICTPSDIDSWYICYL; Peptide family identified from the S20 library) [compound 46]	6615
47 (SVCVGTAFPGWMVCGP; Peptide family identified from the S20 library) [compound 47]	4771
49 (LLCATTSFRDWFVCFT; Peptide family identified from the S20 library) [compound 49]	4512
DACTMVFLWCSL (S16 and S17 hits Phage 177) [P177]	8655
KTCVSTTFDLWFVCFA (disulfide 3-14 (inferred)) [P176]	37440
LPDDSLPELICKVRG (S15 library, which displays a random linear 15-mer) [P175]	6790
RWCYFWWITICEL (S16 and S17 hits Phage 178) [P178]	7913
SGCLDALWQCVY (S16 and S17 hits Phage 174) [P174]	34641

System: A431 cells
Experiment: Flow cytometry of phage binding to tumor cells
Type: cell-based, human
Conditions: not given
Method: as §1, §2

Substance	binding to A431 relative to positive control EGF phage
KTCVSTTFDLWFVCFA (disulfide 3-14 (inferred)) [P176]	comparable to that by a positive control phage
SGCLDALWQCVY (S16 and S17 hits Phage 174) [P174]	comparable to that by a positive control phage
TLCRSFFHPLCYA (Sequences of EGFR-Binding Peptides from pIII phage library (CNL5 P146))	weaker than that exhibited by a positive control phage
VLCHRYYHPICYT [P145]	weaker than that exhibited by a positive control phage

Same assay, conditions: anti-phage-FITC antibody, 4° C.

Substance	binding to A431 tumor cells
KTCVSTTFDLWFVCFA (disulfide 3-14 (inferred)) [P176]	displayed binding
SGCLDALWQCVY (S16 and S17 hits Phage 174) [P174]	displayed binding
TLCRSFFHPLCYA (Sequences of EGFR-Binding Peptides from pIII phage library (CNL5 P146))	displayed binding
VLCHRYYHPICYT [P145]	displayed binding
